Assays:
Assay in all cases: cell-based or functional assay
[1] = target: FGFR2-IIIb N550K expressed on FDCP-1 cells (human), P21802
[2] = target: FGFR2-IIIb S252W expressed on FDCP-1 cells (human), P21802
[3] = target: wild type FGFR2-IIIb expressed on FDCP-1 cells (human), P21802

IC50 of inhibition of cell proliferation (MTT assay) [1]: 8.1 nM | IC50 of inhibition of cell proliferation (MTT assay) [2]: 3 nM | IC50 of inhibition of cell proliferation (MTT assay) [3]: 0.3 nM
B1: antibody 4B9 (antibody)
heavy: EVQLQQSGTVLARPGASVKMSCKTSGYTFTSYWMHWVKQRPGQGLEWIGAIYPGNSDTDYSQKFKGKATLTAVTSATTAYMELSSLTNEDSAVYYCSKFDYWGQGTTLTVSSAKTTPPSVYPLAPGSAAQTNSMVTLGCLVKGYFPEPVTVTWNSGSLSSGVHTFPAVLQSDLYTLSSSVTVPSSTWPSQTVTCNVAHPASSTKVDKKIVPRDCGCKPCICTVPEVSSVFIFPPKPKDVLTITLTPKVTCVVVDISKDDPEVQFSWFVDDVEVHTAQTQPREEQFNSTFRSVSELPIMHQDWLNGKEFKCRVNSAAFPAPIEKTISKTKGRPKAPQVYTIPPPKEQMAKDKVSLTCMITDFFPEDITVEWQWNGQPAENYKNTQPIMDTDGSYFVYSKLNVQKSNWEAGNTFTCSVLHEGLHNHHTEKSLSHSPGK
light: QIVLTQSPALMSASPGEKVTMTCSASSSVNYMYWYQQKPRSSPKPWIYLTSNLASGVPARFSGRGSGTSYSLTISSMEAEDAATYYCQQWSSNPYTFGGGTKLEIKRADAAPTVSIFPPSSEQLTSGGASVVCFLNNFYPRDINVKWKIDGSERQNGVLNSWTDQDSKDSTYSMSSTLTLTKDEYERHNSYTCEATHKTSTSPIVKSFNRNEC

From US20130288305A1
